Substrate: O=C(O)C[C@H](O)C(=O)O
Experiment: purified protein
Format: biochemical, Methanocaldococcus jannaschii
Conditions: pH 7.2, 50 mM Tris-HCl, 70 °C

B1: MjFH (MjFHαβ), holo, Fe-S reconstituted (Methanocaldococcus jannaschii DSM 2661) (protein)
chain 1: MKISDVVVELFREAAIYLPEDVKNALEEAYKKESSEISKNTLKAIIENNKIAEETQVPLCQDTGVPIVFLKIGKNINSSEIMKIIEEIKEGVKKATEEVPLRPNVVHPLTRENFKTNVGLNSPFINIEFDESLDREIEIIAFPKGAGSENMSALKMLKPSDGIEGIKNFVLETIANAGGKPCPPIVVGIGIGGTADVALKLAKKALLRKIGERHRDKEIANLEKELLEKINSLGIGAMGLGGDITALDVFIEIAGCHTASLPVGICIQCWADRRAIKRIKLDAKL
chain 2: MEYTFNKLTKKDVKKLKVGDIVYLNGKIYTARDEAHLKIIEMLKSNEKLPFDLNESIIYHAGPIMKKVNDSWVCVSIGPTTSARMNDVEEEFIKLTNISAIVGKGGMKKELLKTFEDYGVVYLAAPGGCAALLANSVKRVDNVYFLDELGMPEAVWELEVNNFGPLIVAMDSHGNSIYEEVNKKVYEKLNELIGL
- Km: 1554 ± 169 µM
